pKd: −log10 of the molar value. Where two headings read alike, the source gives them in different places.
Key:
[1] = biological target: CDK4 (Homo sapiens, UniProt P11802); test: Protein-protein interaction on SWNT/CHI array, Förster distance calculation; settings: distance change after analyte protein CDK4, Förster equation
Experimental: Reaction mixtures for cell-free protein expression were added to each array wells. The fluorescent intensities of each SWNT/CHI well were taken to track the intensity changes. To initiate protein synthesis, 1 μl PCR-amplified DNAs were added to each well a humidified chamber at 37° C. for 2 hours. The arrays were washed three times for 10 min each with PBS buffer (pH 7.4, 100 mM) at RT and then PL spectra were taken. To analyze protein-protein interaction on SWNT/XHI array, anti-Histag antibody or cell-free expressed protein mixtures were added to each well and then PL spectra were taken to compare the intensity change.
Near-infrared photoluminescence spectra were acquired using 785 nm excitation and an Acton SP-150 spectrograph coupled to a Princeton instruments OMA V InGaAs detector or with Kaiser Holospec f/1.8 Imaging Spectrograph (Kaiser Optical).

[2] = biological target: T1, PA-IIL lectin (Pseudomonas aeruginosa, UniProt Q9HYN5); type: binding; settings: for sensor response / cross response to PA-IIL lectin: controls and selectivity, FIG. 30a, FIG. 31
T1 construct: made in house; host or cells: E. coli BL21(DE3) Star
Experimental: (§1) To increase the reproducibility of these sensors, an automated printing method of the chitosan gel was introduced (FIG. 35). Patterned glass microscope slides (Tekdon™) were inserted in a microarray printer (Digilab MicroSys System™), where the robotic head was programmed to dispense alternating layers of chitosan-SWNT (0.25 wt % chitosan (CHI), 1 vol % acetic acid, 30 ug/ml suspended (6,5) SWNT) and crosslinker (10 vol % glutaraldehyde). The suspended SWNT was made from Southwest Nanotechnologies, Inc. CoMoCAT® nanotubes sonicated in 0.25 wt % chitosan (CHI) and 1 vol % acetic acid for 45 minutes at 40% amplitude with a probe-tip sonicator (Cole Parmer, Model CV18). […] The chips were printed in a humidified enclosure (85% RH) at 25° C. and allowed to cross-link overnight in the same environment. Nickel-NTA groups were introduced as previously reported^8; see FIG. 3. Briefly, the chips were washed with a dilute basic buffer (0.01 M NaOH) and water three times. Carboxylic acid groups were introduced to the chitosan wrapped SWNT by bathing the chips in succinic anhydride (0.1 M) overnight. The chips were then washed three times with water and the carboxylic acid groups were activated via N-(3-dimethylaminopropyl)-N′-ethylcarbo diimide hydrochloride (EDC-0.1M) and N-hydroxysuccinimide (NHS-0.1M). The chips were bathed in this solution for 2 hours at 25° C. and examined for the expected formation of bubbles. The chips were again washed and allowed to bathe in a solution of a linked tricarboxylic acid group (Nα,Nα-bis(carboxymethyl)-L-lysine a.k.a. NTA-33 mM) overnight. The chips were washed in water again and stored in a 100 mM solution of NiSO4 to allow maximum binding of nickel to the NTA chelating groups.
(§2) A custom-made near infrared inverted microscope (Zeiss D.1 Observer™) setup allowed us to probe the fluorescent emissions of our SWNT sensors (FIG. 26a). The chips were secured on the microscope stage and the objective (50×/0.7 Zeiss™) was pushed in contact with a blank portion of the glass slide (no SWNT-CHI) to obtain a 5 second background spectrum, which was subtracted from the response spectra. The objective was then moved under a SWNT-CHI gel spot and again pushed in contact with the glass slide. […] The SWNT were excited by a 785 nm laser (B&W Tek™—495 mW) and the emission was sent to a spectrometer (Princeton Instruments Acton SpectraPro 2500i Spectrograph™) and accompanying nIR camera (Intervac MOSIR Camera 350™) The spectra were collected via WinSpec software (Princeton Instruments™) and analyzed with custom Matlab (Mathworks™) code. To maximize signal stability, the spectrometer was cooled with liquid nitrogen two hours prior to experimentation and the laser was allowed to reach peak stability for two hours. […] Data was gathered in the form of emission intensity spectra (950-1250 nm) integrated for 5 seconds.
(§3) A typical experiment was run for approximately 1000 frames (at 5 seconds each) and included a few addition and washing steps to detect lectin-glycan binding (FIG. 26b). First NiSO4 was again added to ensure that the SWNT sensors were responsive and that the NTA chelating groups were fully loaded with Ni^++ groups. The nickel was then washed away with PBS three times, leaving 20 ul of PBS on the sensors. The His-tag lectin was then added to the sensor (20 μl at 2 mg/ml) and allowed to bind for 300 seconds.

[3] = biological target: T2, GafD lectin (Escherichia coli, UniProt Q47341); type: binding; design: made in house; host or cells: E. coli BL21(DE3) Star; settings: for sensor response / cross response to GafD lectin: controls and selectivity, FIG. 30a, FIG. 31
Experimental: as §1, §2, §3

[4] = tested on: SWNT-Chitosan lectin sensors; test: Ensemble chitosan-SWNT sensor measurements, controls and overall response (lectin not stated); type: binding; settings: FIG. 30a
Experimental: To increase the reproducibility of these sensors, an automated printing method of the chitosan gel was introduced (FIG. 35). Patterned glass microscope slides (Tekdon™) were inserted in a microarray printer (Digilab MicroSys System™), where the robotic head was programmed to dispense alternating layers of chitosan-SWNT (0.25 wt % chitosan (CHI), 1 vol % acetic acid, 30 ug/ml suspended (6,5) SWNT) and crosslinker (10 vol % glutaraldehyde). The suspended SWNT was made from Southwest Nanotechnologies, Inc. CoMoCAT® nanotubes sonicated in 0.25 wt % chitosan (CHI) and 1 vol % acetic acid for 45 minutes at 40% amplitude with a probe-tip sonicator (Cole Parmer, Model CV18). For each sensor spot ten alternating layers of SWNT-CHI and cross-linker were printed at […] per layer, resulting in a highly-uniform gel of 1 ul SWNT-CHI material. […]
A custom-made near infrared inverted microscope (Zeiss D.1 Observer™) setup allowed us to probe the fluorescent emissions of our SWNT sensors (FIG. 26a). […] The SWNT were excited by a 785 nm laser (B&W Tek™—495 mW) and the emission was sent to a spectrometer (Princeton Instruments Acton SpectraPro 2500i Spectrograph™) and accompanying nIR camera (Intervac MOSIR Camera 350™) The spectra were collected via WinSpec software (Princeton Instruments™) and analyzed with custom Matlab (Mathworks™) code. […]

[5] = biological target: T2, GafD lectin; settings: probe 1 mg/ml with GafD 3 mg/ml in solution
Experimental: The interaction between lection and glycan was analyzed by 15% native PAGE according to the method of Schagger and von Jagow with minor modifications. […] Briefly, blectrophoresis was performed using Mini Protean Electrophoresis system (Bio-Rad, USA™) for molecular interaction under nondenaturing conditions. Nonreduced protein/glycan samples in the sample buffer (20% glycerol, 200 mM Tris-HCl, pH 6.8, 0.05% bromophenol blue) were applied to the gel (gel buffer: 25 mM Tris-HCl, 200 mM glycine). Electrophoresis was performed at 80 V for 120 min. After electrophoresis, the protein bands were visualized by staining with Coomassie Brilliant Blue R-250.

[6] = biological target: T2, GafD lectin; settings: 10 μM probe, sum of noise-reduced traces from 150 individual SWNT sensors
Experimental: A second custom microscope was used to collect emission intensities of single SWNT sensors (FIG. 27a). The SWNT-CHI gel was diluted to 3 μg/ml of SWNT and spin-coated (3000 rpm for 30 s on Make of SpinCoater™) on glass-bottom petridishes (MarTec Corp™). The petri-dishes were then placed on the microscope platform (Zeiss D.1 Observer) and the oil-immersed objective (Zeiss™ 100×/1.46) was focused on the SWNT sensors on the glass surface. The SWNT were excited by a 660 nm laser (Crystal Laser—100 mW) and the emission intensities were recorded by a nitrogen-cooled InGaAs array (Princeton Instruments™). […] These Tiff images were then analyzed using custom Matlab code (Mathworks™) to construct a intensity versus time trace for each SWNT sensor (FIG. 27c).
The use of single nanotube spectroscopy allowed this question to be addressed (FIG. 32). […] Using software developed in house, the movies of SWNT fluorescence were analyzed and intensity time traces were extracted for each of the individual SWNT sensors (FIG. 37).^24b An efficient algorithm for fitting large quantities of these time traces to embedded fluorescent levels was used.^35 Briefly, the algorithm used an optimized form of an established noise-reduction algorithm for biological experiments^36 to clean the traces (FIG. 37c). It then evaluated all-points histograms of each trace to determine the unique fluorescent states of each trace. […]

[7] = from concentration dependent curves, analyte to PA-IIL
[8] = after Ni2+ and GafD lectin loading, FIG. 29a-b
[9] = from concentration dependent curves, analyte to GafD

T2 sequence (Q47341 23-343): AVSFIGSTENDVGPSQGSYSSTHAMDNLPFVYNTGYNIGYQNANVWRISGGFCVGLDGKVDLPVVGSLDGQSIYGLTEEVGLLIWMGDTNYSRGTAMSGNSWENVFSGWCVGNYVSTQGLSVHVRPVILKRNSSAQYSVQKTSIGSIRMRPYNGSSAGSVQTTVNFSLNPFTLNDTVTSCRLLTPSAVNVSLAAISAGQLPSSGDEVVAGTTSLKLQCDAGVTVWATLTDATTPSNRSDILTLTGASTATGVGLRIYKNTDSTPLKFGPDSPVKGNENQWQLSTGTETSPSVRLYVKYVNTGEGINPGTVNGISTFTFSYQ
T1 sequence (Q9HYN5 entry or part of it): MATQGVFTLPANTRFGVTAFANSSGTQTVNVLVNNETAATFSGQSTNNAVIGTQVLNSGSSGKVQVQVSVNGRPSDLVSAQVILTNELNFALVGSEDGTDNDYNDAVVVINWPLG
Sequence of CDK4 (P11802 with tags, fused parts or gaps): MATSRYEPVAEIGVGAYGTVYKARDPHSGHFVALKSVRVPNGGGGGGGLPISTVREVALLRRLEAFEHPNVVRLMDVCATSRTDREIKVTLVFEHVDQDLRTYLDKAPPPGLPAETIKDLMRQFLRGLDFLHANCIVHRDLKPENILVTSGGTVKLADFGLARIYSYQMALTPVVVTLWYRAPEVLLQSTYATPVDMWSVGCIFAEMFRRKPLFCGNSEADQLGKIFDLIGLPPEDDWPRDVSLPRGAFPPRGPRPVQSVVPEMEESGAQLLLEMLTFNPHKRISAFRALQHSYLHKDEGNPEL

p16: human derived protein (ExPASy P42771), on-chip cell-free expressed with His-tag
Δd2 [1]: 0.05174

Fuc-Strept: model glycoprotein probe: biotinylated fucose glycan bound to streptavidin
sensor response / cross response to PA-IIL lectin [2]: positive response
Kf [2, 7]: 0.0001 µM/s
sensor response / cross response to GafD lectin [3]: small affinity

blank streptavidin: streptavidin (Sigma Aldrich SO677) without glycan
sensor response of controls [4]: negligible response
time response (loading curve) upon analyte addition ([3]; GafD lectin biotinylated, positive control, FIG. 29c): expected loading curve was observed
time response (loading curve) upon analyte addition [3, 8]: No loading curve was observed

GlcNAc-Strept: model glycoprotein probe: biotinylated GlcNAc glycan bound to streptavidin
sensor response / cross response to PA-IIL lectin [2]: negligible binding
time response (loading curve) upon analyte addition [3, 8]: SPR-like loading curve was observed
sensor response / cross response to GafD lectin [3]: positive response
Kf [3, 9]: 0.0003 µM/s
kr [3, 9]: 0.015 s⁻¹
complex formation on native PAGE gel [5]: bound complex
signal modulation (response) [6]: ~3.5%

O=C(O)CCCC[C@@H]1SC[C@@H]2NC(=O)N[C@@H]21 [biotin]
sensor response of controls [4]: negligible response

GlcNAcβ-SpNH-LC-LC-Biotin [GlcNAc-Biotin]
time response (loading curve) upon analyte addition [3, 8]: loading curve was observed
pKd [3, 9]: 4.72
Kf [3, 9]: 0.0002 µM/s
kr [3, 9]: 0.0037 s⁻¹

Fucα1-2Galβ1-4Glcβ-SpNH-LC-LC-Biotin [Fuc-Biotin]
pKd [2, 7]: 3.97
Kf [2, 7]: 7e-05 µM/s
kr [2, 7]: 0.0074 s⁻¹
